Where “and” joins values, the source holds several entries; their conditions need not be identical. Identical values can stand only once.
Experiments:
[1] = system: CCRF-CEM cells; assay: antitumor effect of KM 2760 and vincristine in combination, CCRF-CEM cells grafted in nude mouse; type: in vivo, Balb/c nude mouse; settings: Day 10; KM 2760 800 μg per mouse Day 0 and Day 4; VCR 0.55 mg/kg Day 0; tail vein
[2] = system: CCRF-CEM cells; assay: antitumor effect of KM 2760 and Methotrexate in combination, CCRF-CEM cells grafted in nude mouse; type: in vivo, Balb/c nude mouse; settings: Day 7; KM 2760 800 μg per mouse Day 0 and Day 4; MTX 15 mg/kg Day 0 to Day 4; tail vein
Experimental: CCRF-CEM cells (human T cell leukemia cell line) were suspended in RPMI 1640 medium (Gibco BRL) at a concentration of 2×10^8 cells/mL, and 100 μL of the suspension was grafted into the ventral skin of Balb/c nude mice (CLEA Japan Inc. male). On Day 17 after the cell grafting, a diameter of a tumor was measured with calipers, and a tumor volume was calculated using formula 2 in Example 2.
Individuals having the tumor volume within the range of 121 to 348 mm^3 (on average 195 mm^3) were selected, and grouped such that the average tumor volume to be almost the same. Each of the following agents A to D was administered to the mice. Incidentally, the grouping day was defined as Day 0.
B. Group of administering KM 2760 alone: 800 μg of KM2760 was administered per mouse on Day 0 and Day 4.
C. Group of administering Methotrexate (hereinafter referred to as MTX; Methotrexate injection solution, Nippon Weisledary K.K.) alone: 15 mg/kg of MTX was administered per mouse for 5 days from Day 0 to Day 4. […]
The experiment was conducted with groups each consisting of five mice. […] On Day 7, the tumor volume was measured. The antitumor effect was evaluated by comparing average values of a tumor volume change (V/V0) when the tumor volume on Day 0 in each group was defined as V0.

[3] = system: CCR4/EL4 cells
Experimental: CCR4/EL4 cells (WO 01/64754) were suspended in RPMI 1640 medium (manufactured by Gibco BRL) at a concentration of 1×10^5 cells/mL, and 200 μL of the suspension was grafted into the peritoneal cavity of C57BL/6 mice (CLEA Japan Inc., male, 8 weeks old). After, mice was grouped into A to D, and each of the agents A to D was administered to each mouse. The day on which the tumor was grafted was defined as Day 0.
B. Group of administering M-CSF alone: 100 μg of M-CSF (Leucoprol, manufactured by Kyowa Hakko Kogyo Co., Ltd.) was intraperitoneally administered per mouse twice a day from Day-3 to Day-1 and once a day on Day 0, seven times in total.
The experiment was conducted with groups each consisting of 8 mice. […] The antitumor effect was evaluated by a ratio of average values of the number of survival days of mice in each group to an average value of the number of survival days of mice in the negative control group (hereinafter referred to as a life prolongation ratio).

[4] = system: CCR4/EL4 cells; assay: in vitro cytotoxic activity (ADCC) of KM 2760 with cytokine-stimulated effector cells, LDH release; type: cell-based, mouse; settings: KM 2760 1 or 100 ng/mL, effector:target 15:1, 37° C. 4 hours, no cytokine, FIG. 1
Experimental: An effect of using anti-CCR4 human chimeric antibody KM 2760 (FERM BP-7054, WO 01/64754) and a cytokine in combination in an in vitro cytotoxic activity was measured by the following method.
A vein blood (50 mL) was collected from a healthy person, 0.5 mL of heparin sodium (manufactured by Shimizu Seiyaku K.K.) was added, and they were gently mixed. A mononuclear cell layer was separated from using a MONO-POLY separation solution (manufactured by Dainippon Pharmaceutical Co., Ltd.) according to the attached manual. […]
The target cell suspension (50 μL) prepared in the above (c) was added to each well of a 96-well U-shaped bottom plate containing the effector cells stimulated with the cytokine in the above (b) such that the concentration became 1×10^4 cells/well. […] After the reaction, the plate was subjected to centrifugation, and a lactic acid dehydrogenase (hereinafter referred to as LDH) activity in the supernatant was measured by obtaining an absorbance data with CytoTox96 Non-Radioactive Cytotoxic activity Assay (manufactured by Promega) according to the attached manual. […] Cytotoxic activity (%)=[(absorbance of a specimen)−(absorbance of effector cell spontaneous release)−(absorbance of target cell spontaneous release)]/[(absorbance of target cell total release)−(absorbance of target cell spontaneous release)]×100 (Formula 1)

[5] = KM 2760 50 μg i.p. Day 0, M-CSF 100 μg i.p. seven times

B1: KM 2760: anti-CCR4 human chimeric antibody KM 2760 (FERM BP-7054, WO 01/64754) (antibody, V domains shown)
VH: EVQLVESGGDLMKPGGSLKISCAASGFIFSNYGMSWVRQTPDMRLEWVATISSASTYSYYPDSVKGRFTISRDNAENSLYLQMNSLRSEDTGIYYCGRHSDGNFAFGYWGRGTLVTVSA
VL: DVLMTQTPLSLPVSLGDQASISCRSSRNIVHINGDTYLEWYLQRPGQSPKLLIYKVSNRFSGVPDRFSGSGSGTDFTLKISRVEAEDLGVYYCFQGSLLPWTFGGGTRLEIRR
In the case of B1, the “T/C (V/V0 of group divided by V/V0 of negative control group)” value [1] is reported as 0.43, the “T/C (V/V0 of group divided by V/V0 of negative control group)” value [2] is reported as 0.65 and the “Number of survival days (each mouse)” value ([3]; 8 mice per group, KM 2760 50 μg per mouse i.p. Day 0, M-CSF 100 μg per mouse i.p. seven times Day-3 to Day 0, observation to Day 50) is reported as 19 days and 21 days (3×) and 22 days and 24 days and 26 days and 27 days. For the same molecule, the “Average number of survival days” value [3, 5] was 22.9 days, the “Life prolongation ratio (average survival days of group / negative control group)” value [3, 5] was 1.19 and the “antitumor effect in comparison with untreated Group A (survival)” value ([3]; Table 7) was “low”. For the same molecule, the cytotoxic activity [4] was “increased in a concentration-dependent manner”.
